Data published in US20240067747A1 (SHANGHAI HUAOTA BIOPHARMACEUTICAL, published 2024).

Biological target: T1, human CD73 on the cell surface of CHOK1-huCD73-3F4 cells (Huabo Biopharm) (human, UniProt P21589 27-549)
T1 sequence (looked up): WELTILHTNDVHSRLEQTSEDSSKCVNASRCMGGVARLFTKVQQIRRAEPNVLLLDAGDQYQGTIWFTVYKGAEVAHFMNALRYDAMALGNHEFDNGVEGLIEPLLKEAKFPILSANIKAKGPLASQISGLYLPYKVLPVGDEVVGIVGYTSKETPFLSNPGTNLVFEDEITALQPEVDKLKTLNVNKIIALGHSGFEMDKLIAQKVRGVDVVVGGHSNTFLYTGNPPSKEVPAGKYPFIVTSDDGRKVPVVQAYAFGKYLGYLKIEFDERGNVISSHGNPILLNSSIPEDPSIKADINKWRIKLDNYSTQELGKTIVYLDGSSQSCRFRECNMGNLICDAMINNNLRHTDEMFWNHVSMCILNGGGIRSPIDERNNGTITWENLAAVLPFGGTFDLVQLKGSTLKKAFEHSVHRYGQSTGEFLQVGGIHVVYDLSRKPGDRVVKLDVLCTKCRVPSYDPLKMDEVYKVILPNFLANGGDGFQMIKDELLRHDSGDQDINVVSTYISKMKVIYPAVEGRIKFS
Test: cell-based or functional assay

- EC50 of inhibition of the enzyme activity of CD73 on cell membrane (AMP/ATP, CellTiter-Glo): 0.0749 µg/mL
B1: 900567 (human-mouse chimeric anti-CD73 antigen-binding protein expressed from 124A9 variable regions) (antibody, V domains shown)
VH: QVQLQQPGAELVKPGASVKLSCKASGYTFTSYWIHWVKQRPGQGLDWIGMIHPNSGSTYYNEKFKSKATLTVDKSSSTAYMQLSSLTSEDSAVYYCARYYGSDYEWYFDVWGTGTTVTVSS
VL: DIVMTQSQKFMSTSVGDRVSITCKASQNVRTAVVWYQQNPGQSPKALIYLASNRHTGVPDRFTGSGSGTDFTLTISNVHSEDLADYFCLQHWNYPYTFGGGTKLEIK
